Source: the DeepSol protein solubility set

Test: soluble on expression in E. coli; label from the status in PepcDB or PDB records

| Sequence | soluble on expression in E. coli |
| --- | --- |
| MKTKIINLVVVTGMSGAGKTVAIQSFEDIGYFTIDNIPPSLVPKVIELLKHSEETDKIALVVDMRSRVFFDEINDILDQLESNEELNFKILFLDATDGELVSRYKETRRSHPLAADGRVLDGIKLERELLSPLKSLSQNVVDTTKLTPRQLRKAISEQFSSKQDQSSFRIEVLSFGFKYGLPLDADLVFDVRFLPNPYYDPTLRNLTGLDKEVYDFVMTHKESEDFYKNLNHLIKPILPGYQKEGKSVLTIAVGCTGGQHRSVAFAHRLAQDLKNDWTVNETHRDKDRRKETVNRS | not soluble |
| MKTLQDSIIFRHGAKIKGRIVQPPMLTNSGNDGYVTQDALDYYAARSQSAGMIIVEYTTVSENGGPSRSWARDREQLTIYDDKFKPGMAKLATVIKKMGIKLYYNWSIPVEKLIISLNWVSRFMHQVR | not soluble |
| MKTVKHLLQEKGHTVVAIGPDDSVFNAMQKMAADNIGALLVMKDEKLVGILTERDFSRKSYLLDKPVKDTQVKEIMTRQVAYVDLNNTNEDCMALITEMRVRHLPVLDDGKVIGLLSIGDLVKDAISQHQFVINQLERYIYDTREI | soluble |
| MKTVVFAYHDMGCLGIEALLAAGYEISAIFTHTDNPGEKAFYGSVARLAAERGIPVYAPDNVNHPLWVERIAQLSPDVIFSFYYRHLIYDEILQLAPAGAFNLHGSLLPKYRGRAPLNWVLVNGETETGVTLHRMVKRADAGAIVAQLRIAIAPDDIAITLHHKLCHAARQLLEQTLPAIKHGNILEIAQRENEATCFGRRTPDDSFLEWHKPASVLHNMVRAVADPWPGAFSYVGNQKFTVWSSRVHPHASKAQPGSVISVAPLLIACGDGALEIVTGQAGDGITMQGSQLAQTLGLVQGSRLNSQPACTARRRTRVLILGVNGFIGNHLTERLLREDHYEVYGLDIGSDAISRFLNHPHFHFVEGDISIHSEWIEYHVKKCDVVLPLVAIATPIEYTRNPLRVFELDFEENLRIIRYCVKYRKRIIFPSTSEVYGMCSDKYFDEDHSNLIVGPVNKPRWIYSVSKQLLDRVIWAYGEKEGLQFTLFRPFNWMGPRLDNLNAARIGSSRAITQLILNLVEGSPIKLIDGGKQKRCFTDIRDGIEALYRIIENAGNRCDGEIINIGNPENEASIEELGEMLLASFEKHPLRHHFPPFAGFRVVESSSYYGKGYQDVEHRKPSIRNAHRCLDWEPKIDMQETIDETLDFFLRTVDLTDKPS | soluble |
| MKTYDVVVVGAGMLGIAHAWAAARRGLSVAVVERSQRAHGATIRNFGQVLVTGQAPGVMARHARQSRELWLELAAGAGFHVRANGSLVLARSALEQDVLEEFAAARLQAEGYRAELLSGRELARLFDGRLGHHCAALRGHDDLQIYSREALPAITAYLADRFGVEFLTATLASAVREGVVQTSAGALRGRHAFVCPGHDYLTLAPELFAPLGLQVSCLQMLRVAFETRPFALDRPLLTGLSCVYYGAFSDLPTARTLRESLQRHEPDLLDNGIHLLVSPTPHGELIIGDSHRYGVDALPFNDEQVDCAMLDLAQQALGCRLRVIERWQGVYGAHGPAPFSVLPVDDQTTVAVMHSGVGMTVGLAVGENTVQARLGLEHHHHHH | not soluble |
| MKVDLFDFHLPEELIAQTPLPDRAASRLMVLDKRTGAIRHETFRNIISYLNPGDCLVLNDTRVMPARLYGEKEETGGTVEVLLLKQLDGDRWETLVKPGKRVKPGTKLTFGEGKLEAVCLDTLEHGGRVLEFSYDGLFYEVLAELGEMPLPPYIKEKLDDPERYQTVYAREIGSAAAPTAGLHFTEELLDAIREKGVHIVFITLHVGLGTFRPVQVDDVEKHDMHAEFYQMSEETAETLNRVREQGGRIIAVGTTSTRTLETIAGKHNGRFVAESGWTDIFIYPGYEFKGIDGLVTNFHLPKSTLIMLVSALAGRENILHAYQVAVKERYRFFSFGDAMLII | soluble |
| MKVDVDEKTYIITMANDITKLYEENKRNLHYSITDPLTGAYNRKYLNDRFDIFIGDYIVLIDLDNFKMINDYEGHNVGDKILCDFVSLLNKELINSTSIIRLGGDEFIVIFSSDVDKNYVYSQLEALRENFLKVFSKYKYLSFSYGVDTVKRNLKLTIVELDKKMYKNKEKNKKKFDKNLEHHHHHH | soluble |
| MKVGIVLNPHAGGGFDDLKRRVVVRVLKKLDGEFVTADKVAELLGIEAERVKVKETNTRLDTVNLVKALDGNVDVIAVFGGDGTVSDAASAKPQTPLLCIGIGTTNVSPALCPPDFDRLEEVEMRGLVVKFGGEERVAFNDVVVGSTILSTVDGKRVQVDARRYMRGEKVIATPRKFRARVEVGERVVEGVFGNIFVAMTDRRFLGKGIAGGASLSAFLGFKGVVACVSEGIVVSTYTKEDLRRVEPIVTSTISFDDEVVKIDADEVVSCDGNPLGVGRAEVAIEDGVVRVLKPFKEEE | soluble |
| MKVGSQVIINTSHMKGMKGAEATVTGAYDTTAYVVSYTPTNGGQRVDHHKWVIQEEIKLEHHHHHH | not soluble |
| MKVIMTTKVDKASMNIMNKLIENFGFKETEYVFDGNPVYKRGDVLILTTNDEMIYYDYLDREIENQLGFKPEIIAFASRHSSKQKLPALTTHVTGNWGKAMYGGKDESFAVAIPSAMKLSLLKMSELNDLGWTVCYEATHHGPTELEVPSFFIEIGSSEEEWINDRAGEIIAETIIYVLDNYEKGRSKFKVALGIGGGHYAPKQTKRALEGDLAFGHILPKYAQPVSRDVMIKALNRFGEKVEAIYVDWKGSRGETRQLAKSLAQELGLEFIKD | soluble |
| MKVKKWVTQDFPMVEESATVRECLHRMRQYQTNECIVKDREGHFRGVVNKEDLLDLDLDSSVFNKVSLPDFFVHEEDNITHALLLFLEHQEPYLPVVDEEMRLKGAVSLHDFLEALIEALAMDVPGIRFSVLLEDKPGELRKVVDALALSNINILSVITTRSGDGKREVLIKVDAVDEGTLIKLFESLGIKIESIEKEEGF | not soluble |
| MKVLEYRFAIAPMFHFIANKSMEAGLHVCDGHAKQTVQLFMNDAVSEKGKKRIGAIQYEGSNDYTAKEPCMVNWRFERALLPDGLKQDLEAITAFRRDQNEGTAINPNAQSIAFKFEALTDAAKETIEAITAVLQKHARC | not soluble |
| MKVPHVIAELVSEFSGFQHTPDFKASRSTGNFEEGSEEGTSGSHKPEEHHHKEHHGHSLYFGKHSGKKHLPPVVENDGDTHSNHSDVSGSGSSLKEKKHHGLTAHFKDLFHIGHHHHHHGEHPHSKQNSGASTPARKNSTGSECPCSKQEQCHKHSINITVGADEVPTVLATPPNEQNILHAHFIKNQSPCISRVVSSSSLKEKLHKIKRTTSSDSDTDFPEKKCSVASYRVVTH | not soluble |
| MKVRYLTSALLLAMTSGLAAAASVDIRHEYVPDRDGDEHRDRIYVSHRFDNQIGFSVEAKWNYKDGHMGNAGHETGVSYRWKATDNFSLTPGINIDASPSGASVFKYNLTGAYKINDEWDVAARIRHGYKNTDDSRYNQLNLYANRKFEWGKLGVEAEYKDIHGGEGGWKDKGHDQLIDFKGEYTKLESGVIPFFAIAAITHKGDGSEFKDEYVPRFRVGLKYNF | not soluble |
| MKVTLPDFRRAGVLVVGDVMLDRYWYGPTCRISPEAPVPVVKVDTIEERPGGAANVAMNIASLGAVARLVGLTGIDDAARALICKLSEVRVRCDFVSVPTHPTITKLRVLSRNQQLIRLDFEEGFDGVDPTPIFERIQLALPQIGALVLSDYAKGALNSVQPMIQLARKANVPVLIDPKGSDFERYRGATLLTPNLSEFEAVVGRCKNEEELVNRGMQLVADFELSALLVTRSEQGMTLLQLGKPPLHLPTQAKEVFDVTGAGDTVIGVLAAALAAGNSLEESCFLANAAAGVVVGKLGTSTVSPIELENAIRGRAETGFGVMDEQQLKIAVAQARQRGEKVVMTNGIFDILHAGHVSYLANARKLGDRLIVAVNSDASTKRLKGEKRPVNPLEQRMVVLGALEAVDWVVPFEEDTPQRLIADILPDLLVKGGDYKPHEIAGSEEVWAAGGEVKVLNFEDGVSTTNIIQSIKNGRG | not soluble |
| MKVYSKDDIVEQAKELAKMISETEEVDFFKKAEAQIHKNENVKRAIDEIKALQKQAVNLQHYGKWEALKKVEAEIDALQDKLDSIPVVQQFKSSQTYVNDLLQLVASTISNNVTDEILISTGGDVLKGETGAAVESKKGNCGC | not soluble |
| MKWRSRQLSFSSAKWYGDVIWIFDPGIIGAQIDNEGDLKKCFIQTLFHSTGSRQSIRIWWREIMLSLILRIYLDKFLPWISLSIKEVGESSVINFSLWGCLHGTRFRRWYSPFQKLSALAITKKDVISSSWRCFNGMRCN | soluble |
